Molecular target: Envelope (E) protein of tick-borne encephalitis virus strain Sofjin-Chumakov (Far-Eastern subtype), (Tick-borne encephalitis virus, strain Sofjin-Chumakov) (UniProt P07720)
Assay: cryo-EM structure

“Envelope (E) protein of tick-borne encephalitis virus strain Sofjin-Chumakov (Far-Eastern subtype), (from UniProt P07720) (natural protein)” showed a stoichiometry N of 2.

Source: PMC10930109
